Measurements from US11155602B2, “Polypeptides targeting HIV fusion” (priority 2015, dated 2021).

B1: 425 (protein)
chain: MGHHHHHHGGSVSDVPRDLEVVAATPTSLLISWEYKVNAYRYYRITYGETGGNSPVQEFTVPSVLSTATISGLKPGVDYTITVYAVTYGVDSDPISINYRTEIDGGGGSGGGGSGGGGSGGGGTIAEYAARIEALIRAAQEQQEKNEAALRELYKWAS
modifications: Anti-N17 Adnectin - HIV fusion peptide inhibitor Combinectin
B2: 427 (protein)
chain: MGHHHHHHGVSDVPRDLEVVAATPTSLLISWKYKVHPYRYYRITYGETGGNSPVQEFTVPSVLSTATISGLKPGVDYTITVYAVTYGVNSLPISINYRTEIDGGGGSGGGGSGGGGSGGGGTEYEARIEALIRAAQEQQEKNEAALRELKEWASIWN
modifications: Anti-N17 Adnectin - HIV fusion peptide inhibitor Combinectin
B3: 426 (protein)
chain: MGHHHHHHGGSVSDVPRDLEVVAATPTSLLISWEYKVNAYRYYRITYGETGGNSPVQEFTVPSVLSTATISGLKPGVDYTITVYAVTYGVDSDPISINYRTEIDGGGGSGGGGSGGGGSGGGGSEYEARIEALIRAAQEQQEKNEAALRELYKWAS
modifications: Anti-N17 Adnectin - HIV fusion peptide inhibitor Combinectin
B4: 424 (protein)
chain: MGHHHHHHGGSVSDVPRDLEVVAATPTSLLISWEYKVNAYRYYRITYGETGGNSPVQEFTVPSVLSTATISGLKPGVDYTITVYAVTYGVDSDPISINYRTEIDGGGGSGGGGSGGGGSGGGGARIEEYAARIEALIRAAQEQQEKNEAALRELYKWAS
modifications: Anti-N17 Adnectin - HIV fusion peptide inhibitor Combinectin

System: NL-Rluc virus
Assay: Combinectin potency assay: antiviral EC50, NL-Rluc virus in MT-2 cells, luciferase readout
Format: cell-based, HIV-1
Settings: Anti-N17 Adnectin - HIV fusion peptide inhibitor Combinectin, Table 4
Summary of the method: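 Peptides, serially diluted threefold over 11 points in triplicate, were exposed for 4–5 days to MT-2 cells preinfected 1 h with NL-Rluc virus (MOI 0.01). Replication read out as Renilla luciferase signal, with EC50 derived against untreated infected controls.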

Q: How did the EC50 turn out when B1 was run?
A: Its EC50 is 523 nM.

Q: For B2, which EC50 is on record?
A: Its EC50 is 143 nM.

Q: How did the EC50 turn out when B3 was run?
A: The EC50 was 139 nM.

Q: Which EC50 does the source give for B4 here?
A: The EC50 was 39 nM.
